According to patent US20110009319A1:

How the values were obtained:
[1] = molecular target: TGF-b1 (UniProt P01137); test: cell-based or functional assay
[2] = molecular target: activin-A (UniProt P08476); test: cell-based or functional assay
Chain of activin-A (P08476 311-426): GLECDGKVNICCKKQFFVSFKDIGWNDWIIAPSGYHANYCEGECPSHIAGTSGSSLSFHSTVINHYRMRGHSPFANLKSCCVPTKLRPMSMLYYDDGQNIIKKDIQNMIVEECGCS

Chain of TGF-b1 (P01137 279-390 limits assumed): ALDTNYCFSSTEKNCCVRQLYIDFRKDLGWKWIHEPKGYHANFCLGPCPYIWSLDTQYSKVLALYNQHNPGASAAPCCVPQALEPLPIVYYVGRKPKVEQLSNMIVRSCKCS

3TP-lux luciferase expression induced by TGF-b1 in HepG2 cells (fold reduction) [1]: 4
FAST2/A3-luciferase induction by 100 pM TGF-b1 in 293T cells (fold reduction) [1]: 3
3TP-lux luciferase expression induced by activin-A in HepG2 cells (fold reduction) [2]: 4
Substance: wild type mouse Cripto (from UniProt P51865 18-134) (receptor)
